The source of these data is US20090124791A1.

pKd: −log10 of the molar value.

In test [1] the target is B7.1/Ig fusion protein (human) (UniProt P33681). The test is described as follows: cell-based or functional assay.
Test [2] deals with human B7.1 antigen (CD80), form not stated (human) (UniProt P33681). The test can be described thus: surface plasmon resonance.
The target of test [3] is B7.1/Ig fusion protein (human) (UniProt P33681). The test can be described thus: competition of 125I-B7.1Ig binding to CD28 positive peripheral blood T lymphocytes.
Test [4] deals with human B7.1 antigen (CD80) on cells (human) (UniProt P33681). The test is described as follows: competition on B7.1 transfected CHO cells; competitor L307.4 (FIG. 8).
human B7.1 antigen (CD80) on cells (human), sequence (P33681 35-288): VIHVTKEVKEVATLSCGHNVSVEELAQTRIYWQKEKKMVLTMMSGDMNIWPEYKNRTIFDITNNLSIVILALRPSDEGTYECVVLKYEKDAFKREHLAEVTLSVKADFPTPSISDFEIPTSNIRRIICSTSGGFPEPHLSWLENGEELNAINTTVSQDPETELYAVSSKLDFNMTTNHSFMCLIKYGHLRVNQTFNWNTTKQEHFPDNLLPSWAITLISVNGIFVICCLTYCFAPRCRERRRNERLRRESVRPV

B7.1/Ig fusion protein (human), sequence (P33681 35-242): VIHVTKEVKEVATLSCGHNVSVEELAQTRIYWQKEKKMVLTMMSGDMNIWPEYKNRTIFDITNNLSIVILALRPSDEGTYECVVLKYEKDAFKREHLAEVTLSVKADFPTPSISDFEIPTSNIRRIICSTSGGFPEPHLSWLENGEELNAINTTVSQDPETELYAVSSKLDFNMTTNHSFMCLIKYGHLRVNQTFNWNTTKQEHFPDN
human B7.1 antigen (CD80), form not stated (human), sequence (P33681 35-242 limits assumed): as the sequence (P33681 35-242) above

Regarding primatized 16C10 (IDEC-114) (antibody), in test [1], the concentration for equivalent blocking of IL-2 against CTLA-4Ig, beads anti-CD3/B7 8:1 worked out at 10 fold and the inhibition of IL-2, CD4+ T cells with anti-CD3/B7-Ig beads (8:1) fell in the range of 50 to 90%. Also, in test [2], the pKd is 8.40. The substance also returned an IC50 in test [3] of less than 1 µg/mL.
BB-1 murine anti-B7 antibody had a cross-reactivity (competition) with L307.4 in test [4] of 50%.
